Sequences and labels used below:
B1: Wnt3a (ligand, UniProt P56704 19-352, looked up)
chain: SYPIWWSLAVGPQYSSLGSQPILCASIPGLVPKQLRFCRNYVEIMPSVAEGIKIGIQECQHQFRGRRWNCTTVHDSLAIFGPVLDKATRESAFVHAIASAGVAFAVTRSCAEGTAAICGCSSRHQGSPGKGWKWGGCSEDIEFGGMVSREFADARENRPDARSAMNRHNNEAGRQAIASHMHLKCKCHGLSGSCEVKTCWWSQPDFRAIGDFLKDKYDSASEMVVEKHRESRGWVETLRPRYTYFKVPTERDLVYYEASPNFCEPNPETGSFGTRDRTCNVSSHGIDGCDLLCCGRGHNARAERRREKCRCVFHWCCYVSCQECTRVYDVHTCK
notes: Wnt3a, purified protein; also called purified Wnt3a; source: purified
B2: Wnt5a (ligand, UniProt P41221 62-380, looked up)
chain: IIGAQPLCSQLAGLSQGQKKLCHLYQDHMQYIGEGAKTGIKECQYQFRHRRWNCSTVDNTSVFGRVMQIGSRETAFTYAVSAAGVVNAMSRACREGELSTCGCSRAARPKDLPRDWLWGGCGDNIDYGYRFAKEFVDARERERIHAKGSYESARILMNLHNNEAGRRTVYNLADVACKCHGVSGSCSLKTCWLQLADFRKVGDALKEKYDSAAAMRLNSRGKLVQVNSRFNSPTTQDLVYIDPSPDYCVRNESTGSLGTQGRLCNKTSEGMDGCELMCCGRGYDQFKTVQTERCHCKFHWCCYVKCKKCTEIVDQFVCK
notes: Wnt5a, purified protein; also called purified Wnt5a; source: purified
B3: Wnt11 (ligand, UniProt O96014 25-354, looked up)
chain: IKWLALSKTPSALALNQTQHCKQLEGLVSAQVQLCRSNLELMHTVVHAAREVMKACRRAFADMRWNCSSIELAPNYLLDLERGTRESAFVYALSAAAISHAIARACTSGDLPGCSCGPVPGEPPGPGNRWGGCADNLSYGLLMGAKFSDAPMKVKKTGSQANKLMRLHNSEVGRQALRASLEMKCKCHGVSGSCSIRTCWKGLQELQDVAADLKTRYLSATKVVHRPMGTRKHLVPKDLDIRPVKDSELVYLQSSPDFCMKNEKVGSHGTQDRQCNKTSNGSDSCDLMCCGRGYNPYTDRVVERCHCKYHWCCYVTCRRCERTVERYVCK
notes: Wnt11, purified protein; also called purified Wnt11; source: purified

The target of the assay is T1, low-density lipoprotein (LDL) receptor-related protein 1 (LRP1), purified human full-length (human, UniProt Q07954 20-4544).
T1 construct: LRP1, human, purified full-length protein coated onto microtiter plates; also called full-length LRP1; Full-length sLRP1; source: purified
T1 sequence (Q07954 20-4544): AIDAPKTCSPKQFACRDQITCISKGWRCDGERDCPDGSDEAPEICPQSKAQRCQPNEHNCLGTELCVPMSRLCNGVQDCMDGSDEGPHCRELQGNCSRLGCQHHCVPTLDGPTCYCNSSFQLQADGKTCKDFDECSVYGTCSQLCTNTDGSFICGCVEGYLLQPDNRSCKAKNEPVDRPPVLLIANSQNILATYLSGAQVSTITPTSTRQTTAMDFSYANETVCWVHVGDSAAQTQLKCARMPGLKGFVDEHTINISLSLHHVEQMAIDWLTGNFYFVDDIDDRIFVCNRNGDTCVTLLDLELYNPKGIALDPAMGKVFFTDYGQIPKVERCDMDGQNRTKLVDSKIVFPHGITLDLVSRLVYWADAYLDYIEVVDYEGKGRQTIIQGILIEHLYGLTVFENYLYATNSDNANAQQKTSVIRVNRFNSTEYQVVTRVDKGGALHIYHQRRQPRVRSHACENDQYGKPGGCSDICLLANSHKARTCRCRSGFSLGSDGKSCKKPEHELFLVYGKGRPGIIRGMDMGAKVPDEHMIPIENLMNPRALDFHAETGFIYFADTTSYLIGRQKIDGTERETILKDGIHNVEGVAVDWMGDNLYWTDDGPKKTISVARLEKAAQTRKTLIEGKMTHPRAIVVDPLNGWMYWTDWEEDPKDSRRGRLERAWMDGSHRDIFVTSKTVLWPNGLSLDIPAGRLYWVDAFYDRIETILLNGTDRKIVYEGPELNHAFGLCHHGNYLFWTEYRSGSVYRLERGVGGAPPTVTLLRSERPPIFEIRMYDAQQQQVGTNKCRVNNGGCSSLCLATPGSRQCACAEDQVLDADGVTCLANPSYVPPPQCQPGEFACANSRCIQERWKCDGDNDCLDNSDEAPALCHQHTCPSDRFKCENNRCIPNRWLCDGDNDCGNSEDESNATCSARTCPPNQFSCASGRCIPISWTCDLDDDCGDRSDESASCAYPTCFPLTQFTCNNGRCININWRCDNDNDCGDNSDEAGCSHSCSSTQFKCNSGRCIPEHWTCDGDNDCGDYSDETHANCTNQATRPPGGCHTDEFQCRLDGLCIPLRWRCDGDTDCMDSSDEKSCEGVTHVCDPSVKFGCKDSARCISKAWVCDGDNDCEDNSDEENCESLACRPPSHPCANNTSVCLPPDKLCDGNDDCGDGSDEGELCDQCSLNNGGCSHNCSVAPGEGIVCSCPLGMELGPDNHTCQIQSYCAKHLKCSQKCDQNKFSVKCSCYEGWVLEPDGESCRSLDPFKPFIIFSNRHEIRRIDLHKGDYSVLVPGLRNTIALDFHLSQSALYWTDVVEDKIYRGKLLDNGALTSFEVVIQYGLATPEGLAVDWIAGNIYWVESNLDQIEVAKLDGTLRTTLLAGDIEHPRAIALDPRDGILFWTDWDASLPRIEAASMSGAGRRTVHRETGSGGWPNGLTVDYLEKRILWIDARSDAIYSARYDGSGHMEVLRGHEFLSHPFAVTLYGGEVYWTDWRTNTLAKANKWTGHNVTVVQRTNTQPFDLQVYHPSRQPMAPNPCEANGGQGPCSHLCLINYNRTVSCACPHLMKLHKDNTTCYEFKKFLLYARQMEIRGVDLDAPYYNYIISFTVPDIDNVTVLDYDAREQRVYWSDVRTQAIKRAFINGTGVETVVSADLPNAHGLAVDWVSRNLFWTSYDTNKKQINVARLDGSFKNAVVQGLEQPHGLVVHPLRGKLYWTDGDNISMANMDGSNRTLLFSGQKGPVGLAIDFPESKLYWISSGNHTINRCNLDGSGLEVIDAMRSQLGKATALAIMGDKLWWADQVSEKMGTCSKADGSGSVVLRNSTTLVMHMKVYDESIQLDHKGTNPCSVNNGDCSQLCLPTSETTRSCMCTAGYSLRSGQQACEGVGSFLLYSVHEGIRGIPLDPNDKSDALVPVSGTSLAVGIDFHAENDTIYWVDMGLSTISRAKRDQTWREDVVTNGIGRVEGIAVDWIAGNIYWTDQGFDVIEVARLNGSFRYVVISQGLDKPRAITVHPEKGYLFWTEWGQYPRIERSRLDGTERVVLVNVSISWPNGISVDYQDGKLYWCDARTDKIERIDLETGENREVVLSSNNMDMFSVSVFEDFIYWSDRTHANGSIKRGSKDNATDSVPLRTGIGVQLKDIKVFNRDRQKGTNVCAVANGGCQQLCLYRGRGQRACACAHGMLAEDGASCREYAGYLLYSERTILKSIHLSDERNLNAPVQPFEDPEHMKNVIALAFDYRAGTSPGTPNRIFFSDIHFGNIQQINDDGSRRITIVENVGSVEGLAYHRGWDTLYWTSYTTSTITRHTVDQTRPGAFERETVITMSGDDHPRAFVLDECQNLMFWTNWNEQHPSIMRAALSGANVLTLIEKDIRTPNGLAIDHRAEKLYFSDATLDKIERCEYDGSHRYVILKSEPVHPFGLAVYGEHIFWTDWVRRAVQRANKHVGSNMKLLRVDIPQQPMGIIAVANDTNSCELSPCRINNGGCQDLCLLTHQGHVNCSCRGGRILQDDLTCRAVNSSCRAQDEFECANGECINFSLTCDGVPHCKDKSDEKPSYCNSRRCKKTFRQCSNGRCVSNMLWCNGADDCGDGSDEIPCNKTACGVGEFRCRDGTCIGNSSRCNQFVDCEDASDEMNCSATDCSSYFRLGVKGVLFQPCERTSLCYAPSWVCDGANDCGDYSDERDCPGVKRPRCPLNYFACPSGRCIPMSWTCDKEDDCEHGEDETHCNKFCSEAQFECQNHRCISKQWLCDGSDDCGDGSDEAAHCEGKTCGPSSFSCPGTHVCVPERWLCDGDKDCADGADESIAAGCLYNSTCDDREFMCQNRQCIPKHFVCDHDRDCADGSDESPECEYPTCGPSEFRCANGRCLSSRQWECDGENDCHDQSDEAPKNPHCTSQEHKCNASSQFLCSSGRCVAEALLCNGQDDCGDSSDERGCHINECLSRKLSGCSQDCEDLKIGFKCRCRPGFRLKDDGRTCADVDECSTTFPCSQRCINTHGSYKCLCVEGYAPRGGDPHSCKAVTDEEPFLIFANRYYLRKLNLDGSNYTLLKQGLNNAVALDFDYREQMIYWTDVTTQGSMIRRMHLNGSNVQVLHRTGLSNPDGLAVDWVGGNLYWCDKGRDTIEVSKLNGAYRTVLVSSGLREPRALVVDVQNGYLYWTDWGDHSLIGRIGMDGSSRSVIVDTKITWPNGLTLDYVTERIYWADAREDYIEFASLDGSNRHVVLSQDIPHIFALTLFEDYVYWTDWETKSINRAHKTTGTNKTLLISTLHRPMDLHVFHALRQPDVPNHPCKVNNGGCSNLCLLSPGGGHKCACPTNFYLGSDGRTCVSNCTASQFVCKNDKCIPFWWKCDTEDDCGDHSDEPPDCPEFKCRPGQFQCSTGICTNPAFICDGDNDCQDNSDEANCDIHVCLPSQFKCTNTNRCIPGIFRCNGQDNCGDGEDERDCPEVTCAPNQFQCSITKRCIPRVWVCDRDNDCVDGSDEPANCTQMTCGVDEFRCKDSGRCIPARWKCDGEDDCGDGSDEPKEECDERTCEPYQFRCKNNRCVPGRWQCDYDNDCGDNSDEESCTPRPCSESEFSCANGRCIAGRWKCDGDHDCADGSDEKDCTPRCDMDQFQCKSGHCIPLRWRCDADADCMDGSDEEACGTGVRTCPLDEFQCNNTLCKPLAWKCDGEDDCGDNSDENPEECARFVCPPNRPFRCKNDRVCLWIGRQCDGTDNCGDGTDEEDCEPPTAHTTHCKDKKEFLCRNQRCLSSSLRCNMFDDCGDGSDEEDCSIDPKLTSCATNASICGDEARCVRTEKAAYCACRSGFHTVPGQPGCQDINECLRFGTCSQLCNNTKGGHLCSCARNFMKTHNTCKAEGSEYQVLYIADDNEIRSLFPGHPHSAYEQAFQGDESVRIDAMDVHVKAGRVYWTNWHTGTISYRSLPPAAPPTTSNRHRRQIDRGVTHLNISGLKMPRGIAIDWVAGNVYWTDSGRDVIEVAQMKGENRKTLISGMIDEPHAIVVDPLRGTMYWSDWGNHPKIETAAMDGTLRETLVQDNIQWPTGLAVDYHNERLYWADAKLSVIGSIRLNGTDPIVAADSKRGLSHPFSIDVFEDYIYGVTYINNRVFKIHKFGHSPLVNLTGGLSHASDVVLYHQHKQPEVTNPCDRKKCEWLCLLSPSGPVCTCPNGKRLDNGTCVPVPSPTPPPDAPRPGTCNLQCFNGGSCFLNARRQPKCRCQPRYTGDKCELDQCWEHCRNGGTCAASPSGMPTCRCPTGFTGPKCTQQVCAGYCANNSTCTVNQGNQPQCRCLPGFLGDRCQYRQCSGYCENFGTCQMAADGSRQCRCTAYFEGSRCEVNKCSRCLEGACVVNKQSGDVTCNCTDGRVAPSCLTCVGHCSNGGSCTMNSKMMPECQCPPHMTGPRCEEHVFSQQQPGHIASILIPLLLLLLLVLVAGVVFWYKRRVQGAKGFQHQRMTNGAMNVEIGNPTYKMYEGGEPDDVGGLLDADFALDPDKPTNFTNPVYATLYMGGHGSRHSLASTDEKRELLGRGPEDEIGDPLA
The assay can be described thus: ELISA; solid-phase binding assay; human full-length LRP1 (10 nmol/L) coated overnight at 4 °C onto microtiter plates in 50 mmol/L Tris-HCl (pH 7.5)/150 mmol/L NaCl/10 mmol/L CaCl2; 0-200 nmol/L Wnt in 5% BSA blocking solution, 30 min at RT; bound Wnt detected with a specific antibody; signal of wells without LRP1 subtracted; apparent KD (K_D,app), extrapolated from a one-phase decay nonlinear fit. The settings on record: both partners purified.
Regarding B1, the Kd is > 200 nM.

For the molecule B2, the Kd is 31 nM. As to B3, the Kd is 42 nM.

These data come from publication PMC11770177, “Skeletal progenitor LRP1 deficiency causes severe and persistent skeletal defects with Wnt pathway dysregulation” (Bone Research, 2025).
